From PMC8794802

Tests used:
Pus7 delta ID-I = molecular target: T1, Pus7 delta ID-I (Saccharomyces cerevisiae, UniProt Q08647 1-74+216-676, internal_change); assay: EMSA
T1 sequence: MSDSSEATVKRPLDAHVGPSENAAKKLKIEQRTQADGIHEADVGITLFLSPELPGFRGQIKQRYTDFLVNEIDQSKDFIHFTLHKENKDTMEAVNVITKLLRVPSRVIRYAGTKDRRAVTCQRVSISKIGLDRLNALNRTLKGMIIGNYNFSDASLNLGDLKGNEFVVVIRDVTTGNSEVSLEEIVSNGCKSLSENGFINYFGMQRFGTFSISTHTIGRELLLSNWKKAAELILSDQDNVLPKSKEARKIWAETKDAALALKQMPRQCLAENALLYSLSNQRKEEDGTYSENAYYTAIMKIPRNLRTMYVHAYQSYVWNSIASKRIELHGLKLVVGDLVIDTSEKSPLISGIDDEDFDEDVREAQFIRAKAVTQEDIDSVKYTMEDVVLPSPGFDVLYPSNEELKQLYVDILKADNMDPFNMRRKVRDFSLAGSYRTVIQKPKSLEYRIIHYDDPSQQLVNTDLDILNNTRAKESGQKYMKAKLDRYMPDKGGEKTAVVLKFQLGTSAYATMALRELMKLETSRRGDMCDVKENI

Pus7 WT = molecular target: T2, Pus7 WT (Saccharomyces cerevisiae, UniProt Q08647 1-676); assay: EMSA
T2 sequence: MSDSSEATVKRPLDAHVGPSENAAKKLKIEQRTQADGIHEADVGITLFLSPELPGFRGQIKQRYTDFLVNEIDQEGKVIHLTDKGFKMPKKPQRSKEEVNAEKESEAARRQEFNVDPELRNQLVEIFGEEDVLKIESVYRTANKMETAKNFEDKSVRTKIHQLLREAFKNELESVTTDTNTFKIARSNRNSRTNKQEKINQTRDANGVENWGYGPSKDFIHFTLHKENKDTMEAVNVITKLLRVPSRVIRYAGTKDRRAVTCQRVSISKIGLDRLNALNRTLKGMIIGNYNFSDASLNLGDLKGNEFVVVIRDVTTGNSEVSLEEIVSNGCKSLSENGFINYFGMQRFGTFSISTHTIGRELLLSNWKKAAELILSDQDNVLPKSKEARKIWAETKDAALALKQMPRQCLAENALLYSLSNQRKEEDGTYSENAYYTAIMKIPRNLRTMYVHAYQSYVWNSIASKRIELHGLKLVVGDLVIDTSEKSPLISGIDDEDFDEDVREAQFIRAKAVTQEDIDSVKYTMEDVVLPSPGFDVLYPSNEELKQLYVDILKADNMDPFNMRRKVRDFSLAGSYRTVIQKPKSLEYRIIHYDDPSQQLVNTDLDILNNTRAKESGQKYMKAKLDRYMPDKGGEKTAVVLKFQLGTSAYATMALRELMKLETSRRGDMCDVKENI

B1: Psi-modified CDC8 (ssRNA)
RNA: GUCAAUCACGAUUGUAGACGUUACUAAUAAGGGCAUUCAGGAAGUUGAAGCGCUUAUUUGG
modifications: pseudouridine at the UGUAG target U (U15)
For B1, the binding signal (Pus7 delta ID-I) was 8 fold weaker than D256A/delta ID-I on unmodified CDC8 and the Kd (Pus7 WT) was 75 ± 15 nM.
